In assay [1] the target is CENP-A^TAP (carboxy-terminally TAP-tagged CENP-A) (human) (UniProt P49450). Nature of the assay: co-IP.
Assay [2] addresses CENP-A^LAP (CENP-A tagged at an endogenous allele with a LAP tag) (human (endogenous in HeLa)) (UniProt P49450). Briefly: co-IP.

A value given as a limit tells only on which side of the number the result lay.

In assay [1], “histone H3 (from UniProt P68431 1-136) (natural protein)” yielded a fold depletion of histone H3 in the purified complexes against the input of 6250 fold.
Take “untagged endogenous CENP-A (from UniProt P49450 1-140) (natural protein)”: in assay [1], the percent of the total CENP-A in the affinity-purified complexes fell in the range of 9 to 13% and the stoichiometry N (CENP-A molecules in a complex) was greater than 2. Besides, the stoichiometry N (CENP-A molecules in a complex) in assay [2] was found to be 2.

For the origin of these results see publication PMC5350519.
